# T1: murine FAP (Mus musculus, UniProt P97321)
# T1 sequence (P97321 1-761): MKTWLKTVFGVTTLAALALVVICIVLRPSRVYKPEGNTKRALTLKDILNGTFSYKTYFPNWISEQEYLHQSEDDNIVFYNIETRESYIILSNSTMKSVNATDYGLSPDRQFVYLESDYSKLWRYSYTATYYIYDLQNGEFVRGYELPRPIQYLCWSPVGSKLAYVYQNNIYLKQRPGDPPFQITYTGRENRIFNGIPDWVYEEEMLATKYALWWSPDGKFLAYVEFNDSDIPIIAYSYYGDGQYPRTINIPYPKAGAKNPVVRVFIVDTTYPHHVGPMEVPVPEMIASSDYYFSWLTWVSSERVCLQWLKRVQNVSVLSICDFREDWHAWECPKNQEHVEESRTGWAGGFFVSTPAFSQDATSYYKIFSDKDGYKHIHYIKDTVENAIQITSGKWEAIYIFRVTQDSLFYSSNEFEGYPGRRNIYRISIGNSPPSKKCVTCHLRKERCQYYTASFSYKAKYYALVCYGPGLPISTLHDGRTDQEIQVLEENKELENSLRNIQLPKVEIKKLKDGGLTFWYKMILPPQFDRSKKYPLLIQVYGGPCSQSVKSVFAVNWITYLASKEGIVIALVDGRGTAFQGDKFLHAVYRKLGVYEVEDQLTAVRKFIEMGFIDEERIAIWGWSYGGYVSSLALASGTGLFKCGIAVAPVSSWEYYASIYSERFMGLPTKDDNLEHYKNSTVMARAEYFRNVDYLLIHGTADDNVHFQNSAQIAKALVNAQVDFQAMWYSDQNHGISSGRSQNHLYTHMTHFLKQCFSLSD
# T2: human FAP protein expressed on 293T cells (Homo sapiens, UniProt Q12884)
# T2 construct: expressed in transfected cells; host or cells: 293T cells, PIRES-puro3 vector, puromycin selection
# T2 sequence (Q12884 1-760): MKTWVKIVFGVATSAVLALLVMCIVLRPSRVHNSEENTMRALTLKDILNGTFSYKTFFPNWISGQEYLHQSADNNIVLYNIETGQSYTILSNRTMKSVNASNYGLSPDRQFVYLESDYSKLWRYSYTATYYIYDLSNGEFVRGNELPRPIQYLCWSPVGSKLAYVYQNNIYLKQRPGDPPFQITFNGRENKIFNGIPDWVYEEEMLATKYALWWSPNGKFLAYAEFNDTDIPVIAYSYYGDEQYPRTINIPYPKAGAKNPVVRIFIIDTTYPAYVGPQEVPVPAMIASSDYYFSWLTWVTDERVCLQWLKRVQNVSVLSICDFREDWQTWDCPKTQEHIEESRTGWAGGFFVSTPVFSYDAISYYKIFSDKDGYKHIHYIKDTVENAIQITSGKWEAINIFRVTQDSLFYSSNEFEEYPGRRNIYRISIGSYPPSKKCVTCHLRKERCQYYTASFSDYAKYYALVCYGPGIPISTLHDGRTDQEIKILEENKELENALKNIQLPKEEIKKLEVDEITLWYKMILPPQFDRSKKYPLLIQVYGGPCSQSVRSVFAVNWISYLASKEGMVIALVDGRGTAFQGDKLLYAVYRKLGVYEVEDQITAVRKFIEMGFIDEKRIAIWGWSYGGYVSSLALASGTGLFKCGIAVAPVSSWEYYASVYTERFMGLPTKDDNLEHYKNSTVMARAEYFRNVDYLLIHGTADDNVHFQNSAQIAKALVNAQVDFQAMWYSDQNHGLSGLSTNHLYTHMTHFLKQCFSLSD
# Legend:
# murine FAP = molecular target: T1, murine FAP; experiment: Binding to murine FAP
# [1] = molecular target: T2, human FAP protein expressed on 293T cells; experiment: Cell binding assay by flow cytometry, 293T-human FAP cells
# Procedure: (§1) Whether the humanized antibody of the present disclosure can bind to human FAP protein stably expressed on the surface of 293T cells was determined by a cell binding assay. Firstly, the sequences encoding human FAP protein (NM_004460.2, SEQ ID NO: 31) and cynomolgus FAP (XM_005573320.2, SEQ ID NO: 32) were cloned into expression vector PIRES-puro3 (Clontech, Cat #631619) […]. The vectors were used to transfect 293T cells. […]
# (§2) The human FAP antibodies (huF19-LG and sibrotuzumab) were 4-fold serially diluted from a starting concentration of 200 nM to a total of 8 concentrations and added to the cells for co-incubation at 4° C. for 30 min. […] The cells were washed twice with PBS and then resuspended, and finally, fluorescence signals were detected using the […] (BD Bioscience) flow cytometer.
# Whether the mutant antibody in the present disclosure can bind to human or cynomolgus FAP protein stably expressed on the surface of 293T cells was determined by a cell binding assay. […] The cells were washed twice with PBS and then resuspended, and finally, fluorescence signals were detected using the […] (BD Bioscience) flow cytometer. […]
# [2] = system: cynomolgus FAP protein expressed on 293T cells; experiment: Cell binding assay by flow cytometry, 293T-cynomolgus FAP cells
# Sequence of cynomolgus FAP protein expressed on 293T cells (as listed by the source): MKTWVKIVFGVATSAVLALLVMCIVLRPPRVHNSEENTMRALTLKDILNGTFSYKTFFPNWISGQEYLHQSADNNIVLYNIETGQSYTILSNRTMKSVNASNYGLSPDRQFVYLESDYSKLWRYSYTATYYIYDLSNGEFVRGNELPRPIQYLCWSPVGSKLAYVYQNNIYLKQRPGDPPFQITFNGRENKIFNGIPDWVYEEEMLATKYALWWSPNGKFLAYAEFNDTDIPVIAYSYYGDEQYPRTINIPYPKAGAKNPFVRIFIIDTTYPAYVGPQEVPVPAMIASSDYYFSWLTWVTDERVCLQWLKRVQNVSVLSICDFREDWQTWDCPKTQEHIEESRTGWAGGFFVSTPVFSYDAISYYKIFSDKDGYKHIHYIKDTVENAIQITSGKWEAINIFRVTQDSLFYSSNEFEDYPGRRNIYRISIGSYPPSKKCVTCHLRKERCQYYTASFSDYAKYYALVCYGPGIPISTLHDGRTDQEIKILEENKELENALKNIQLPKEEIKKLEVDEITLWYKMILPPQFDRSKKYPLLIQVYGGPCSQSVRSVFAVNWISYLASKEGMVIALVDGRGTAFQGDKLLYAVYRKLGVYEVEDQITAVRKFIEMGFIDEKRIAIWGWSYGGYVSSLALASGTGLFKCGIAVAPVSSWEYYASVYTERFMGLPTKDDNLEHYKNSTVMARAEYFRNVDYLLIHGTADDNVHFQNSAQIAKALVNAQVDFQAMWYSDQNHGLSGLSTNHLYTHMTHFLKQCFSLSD
# Procedure: as §1, §2
# Whether the mutant antibody in the present disclosure can bind to human or cynomolgus FAP protein stably expressed on the surface of 293T cells was determined by a cell binding assay. […] The cells were washed twice with PBS and then resuspended, and finally, fluorescence signals were detected using the […] (BD Bioscience) flow cytometer.
# [3] = Stability at 40° C., purity by SEC; type: physicochemical; settings: for Purity by SEC, %: mutant antibody storage stability
# Procedure: The purified antibodies were concentrated, and sterile filtration was performed. The purity of the antibodies was determined by size exclusion chromatography (SEC). Specifically, the samples were loaded at 20 μg onto a TSK G3000SWXL column using 100 mM sodium phosphate+100 mM Na2SO4 (pH 7.0) as a running buffer for 30 min. The collected effluent was measured using the Agilent 1220 HPLC system and the data were analyzed using OpenLAB software.
# The huF19-LG antibody was tested for stability at 40° C. ELISA (see Example 1.2) and SEC (see Example 1.1) were conducted at 0 weeks (OW), 2 weeks (2W), or 4 weeks (4W) with the results shown as follows:
# The activity and purity of the molecule were determined by SEC after storage. See Example 1.5 for the specific procedures.
molecule,measurement,setting,value
"huF19-LG-NGR: mutant of huF19-LG with G56R (Kabat) in heavy chain CDR2; VH SEQ ID NO: 21, VL SEQ ID NO: 15 (antibody, V domains shown) VH: QVQLVQSGAEVKKPGASVKVSCKASGYTFTEYTIHWVRQATGQGLEWIGGINPNNRIPNYNQKFKGRATMTVGTSISTAYMELSSLRSEDTAVYFCARRRIAYGYDEGHAMDYWGQGTLVTVSS VL: DIQMTQSPSSLSASVGDRVTITCKSSQSLLYSRNQKNYLAWFQQKPGKAPKLLIFWASTRESGVPSRFTGSGFGTDFTLTISSLQPEDFATYYCQQYFSYPLTFGQGTKLEIK",binding to murine protein,murine FAP,cannot bind to murine protein
same,binding to human FAP protein expressed on engineered 293T cells (FACS),[1],"can bind to human FAP protein and cynomolgus FAP protein expressed on engineered 293T cells, with the binding capacities comparable to those of the antibody before mutation"
same,binding to cynomolgus FAP protein expressed on engineered 293T cells (FACS),[2],"can bind to human FAP protein and cynomolgus FAP protein expressed on engineered 293T cells, with the binding capacities comparable to those of the antibody before mutation"
same,change in purity by SEC during storage,[3]; 0 to 4 weeks,did not exhibit significant changes in purity
same,"Purity by SEC, %",[3]; 0 weeks,99.2%
same,"Purity by SEC, %",[3]; 2 weeks,99.1%
same,"Purity by SEC, %",[3]; 4 weeks,99.1%
